Results: the supplement of paper PMC7125110
± gives the standard error. Fewer inactive variants are shown than the library holds.

B1: glmS ribozyme (parent)
chain: AUAAAAGCGCCAGAACUACAGAAAUGUAGUUGACGAGGAGGAGGUUUAUCGAAUUUUCGGCGGAUGCCUCCAAA

Variants of: B1
Test: self-cleavage kobs at 10000 uM GlcN6P; higher = faster cleavage; RNA array
Conditions: with glucosamine-6-phosphate
Procedure, shortened: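 E. coli RNA polymerase transcribed barcoded ribozyme variants in situ on sequenced MiSeq chips, which were tracked via a hybridised Cy3 probe at 37 °C. Tiles were imaged over ~14 h after glucosamine-6-phosphate (40 μM to 10 mM) in HEPES/KCl/Mg(OAc)2 buffer was flowed in. Normalised per-tile medians were fit to one- or two-exponential decays for kobs, and kcat and KM came from weighted Michaelis–Menten fits.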

Going from AUAAAAGCGCCAGAACUACAGAAAUGUAGAUGACGAGGAGGAGGUUGAUCGAGUUUUCGGCGGAUGCCUCCAAA [U30A U47G A53G] to AUAAAAGCGCCAGUACUACAGAAAUGUAGUUGACGAGGAGGAGGUUUAUCGAUUUUUCGGCGGAUGCUUCCAAA [A14U A53U C68U], the “self-cleavage kobs at 10000 uM GlcN6P” value rises from 0.000616 ± 0.0001 s⁻¹ to 0.00114 ± 0.00036 s⁻¹ (1.9-fold).

First: AUAAAGGCGCAAGAACUACAGAAAUGUAGUUGAUGAGGAGGAGGUUUAUCGAAUUUUUGGCGGAUGCGUCCAAA [A6G C11A C34U C58U C68G]
Second: AUAAAAGCGUCAGAACUACAGAAAUGUAGUUGACGAGGAGGAGGUUUAUCGAAUUUUCGUCGGUUGCCUCCAAA [C10U G60U A64U]
The “self-cleavage kobs at 10000 uM GlcN6P” value of the first is higher: 0.000295 ± 0.0001 s⁻¹ for the first, under 1e-05 s⁻¹ for the second.

Compared with AUAAAAGCGCCAUAACUACAGAAAUGUAGUUGACGAGGUGGAGGUUUAUCGAAUUUUCGGCGGAUGCCUCUAAA [G13U A39U C71U], AUAAAAGCGCCUGAACUACAGAAAUGUAGUUGACGAGGAGGAGGUUUAUGGCAUUUUCGGCGGAUGCCUGCAAA [A12U C50G A52C C70G] is 7.6-fold lower in “self-cleavage kobs at 10000 uM GlcN6P” value: 0.000606 ± 0.00012 s⁻¹ for the first, 7.94e-05 ± 2.3e-05 s⁻¹ for the second.

Compared with AUAAAAGCGCCAGAACUACAGAAAUGUAGUAGACGAGGAGGAGGUUUAUCGAAUUUUCGGGGGAUGCCUCUAAA [U31A C61G C71U], AUAAAAGCGCCAGAACUACAGAAAUGUAGUUGACGCGGAGGAGGUGUAGCGAAUUUUCGGCGGAUGCCUCCAAA [A36C U46G U49G] is higher in “self-cleavage kobs at 10000 uM GlcN6P” value: under 1e-05 s⁻¹ for the first, 0.000106 ± 2.7e-05 s⁻¹ for the second.

Going from AUAAAAGUGCCAGAACUACAGAAAUGUAUUUCACCUGGAGGAGGUUUAUAGUAUUUUCGGCGGAUGCCUCCAAA [C8U G29U G32C G35C A36U C50A A52U] to AUAAAAGCGCCAGAAGUACAGAAAUGUAGUUGACGAGGAGGAUGUUUAUCGAAUUUUCGGCGGAUGCUUCCAAA [C16G G43U C68U], the “self-cleavage kobs at 10000 uM GlcN6P” value rises from under 1e-05 s⁻¹ to 0.0002 ± 4.7e-05 s⁻¹.

First: AUAAAAGCGCCAGAACUACAGAAAUGUAGUUGACGAGGAGGAUGUUUAUCGAAUUUUCGGCAGAUGCCUCCAAA [G43U G62A]
Second: AUAAAAGCGCCCGGACUACAGAAAUGUAGUUGACGAGGAGGAGGUUAAUCGAGUUUUUGGCGGAUGCCUCCAAA [A12C A14G U47A A53G C58U]
The “self-cleavage kobs at 10000 uM GlcN6P” value of the first is lower: under 1e-05 s⁻¹ for the first, 3.29e-05 ± 1.6e-05 s⁻¹ for the second.

AUAAAUGCUCCAGAACUACAGAAAUGUAGUUGACGAGGAGGAGGUUUAUCGUAUUUUCGGCGGAUGCCUCCAAA [A6U G9U A52U] and AUAAAAGCGCCAGAACUACAGAAAUGUAGUUGACGAGGACGAGGUUUAUCGCAUUUUCGGCGGAUGCCUCCAAA [G40C A52C] cannot be ordered by “self-cleavage kobs at 10000 uM GlcN6P” value: under 1e-05 s⁻¹ for the first, under 1e-05 s⁻¹ for the second.

Compared with AUAAAAGCGCCCGAACUACAGAAAUGUAGUUGACGAGGAGGAGGUUUAUCGAAUUGUCGGCGGAUGCCUGCAAA [A12C U56G C70G], AUAAAAGCGCCAGAACUACAGAAAUGUAGUUGACGAGGAGCAGGUUUAUAGAAUUUUCGGCUGAUGCCUCCAAA [G41C C50A G62U] is lower in “self-cleavage kobs at 10000 uM GlcN6P” value: 5.35e-05 ± 1.3e-05 s⁻¹ for the first, under 1e-05 s⁻¹ for the second.

Compared with AUAAAAGCGCCAGAGCUACAGAAAUGUAGUUGACGAGGAGGAGGUUUAUCGAAUUUUCGGCGGAUCCUUCCAAA [A15G G66C C68U], AUAAAAGCGCCAGAACUACAGAAAUGUAGUUGACGAGGACUAGGUUUAUCGAAUUUUCGGCAGAUGCCUCCAAA [G40C G41U G62A] is lower in “self-cleavage kobs at 10000 uM GlcN6P” value: 0.000127 ± 2.6e-05 s⁻¹ for the first, under 1e-05 s⁻¹ for the second.

Going from AUAAAAGCGCCAGAACUACAGAAAUGUAGAUUACGAGGAGGAGGUUUAUCGAAUUUUCGGCGGAUGACUCCAAA [U30A G32U C67A] to AUAAAAGCGCUAGAACUACAGAAAUGUAGUUUACGAGGAGGAGGGUUAUCGAAUUUUCGGGGGAUGCCUCCAAA [C11U G32U U45G C61G], the “self-cleavage kobs at 10000 uM GlcN6P” value falls from 0.000213 ± 6e-05 s⁻¹ to under 1e-05 s⁻¹.

Going from AUAAAAGCGCCCGAACUACAGAAAUGUAGUUGACGAGGAGAAGGUUUAUCGAAUUUUCGGCGGAUGACUCCAAA [A12C G41A C67A] to AUAAAAGCGCCAGAACUACAGAAAUGUAGUUGACGAGGAGGCGGCUUAUUGAAUUUUCGGCGGAUGCCUCCAAA [A42C U45C C50U], the “self-cleavage kobs at 10000 uM GlcN6P” value falls from 7.76e-05 ± 2.9e-05 s⁻¹ to under 1e-05 s⁻¹.

First: AUAAAAGCGCCAGAACUACAGAAAUGUAGAUGACGAGGCGGAGGUUUAUCGAAUUUUCGGCGGAUGCCUCCAAA [U30A A39C]
Second: AUAAAAGCGGCAGAACUACAGAAAUGUAGUUGAGGGGGAGGAGAGUUAUCGAAUUUCCGGAGGAUGCCUACAAA [C10G C34G A36G G44A U45G U57C C61A C70A]
The “self-cleavage kobs at 10000 uM GlcN6P” value of the first is higher: 0.00136 ± 0.00028 s⁻¹ for the first, under 1e-05 s⁻¹ for the second.

Compared with AUAAAAGCGCCCGAACUACAGAAAUGUAGUUGACGAGGAGGAGGUUUAUCGAAUUUUCGGCGGAUCCCUCCAAA [A12C G66C], AUAAAAACGCCAGAACUACAGAAAUGUAUUUGACGACGAGGAGGUUUAUCGAAUUUUCGGCGGAUGCCUCCAAA [G7A G29U G37C] is lower in “self-cleavage kobs at 10000 uM GlcN6P” value: 0.000754 ± 0.00033 s⁻¹ for the first, under 1e-05 s⁻¹ for the second.

First: AUAAAAGCGCCAAAACUACAGAAAUGUAGUUGACGAAGAGGAGGUUUAUCGAAUUUUCGGCGGAUGCCUCCAAA [G13A G37A]
Second: AUAAAAGCCCCAGAACUACAGAAAUGUAGUUGACGAGGAGGAGGUUUAUCGAAUUUUCGGCGAAUGCGUCCAAA [G9C G63A C68G]
The “self-cleavage kobs at 10000 uM GlcN6P” value of the first is higher: 4.89e-05 ± 1.1e-05 s⁻¹ for the first, under 1e-05 s⁻¹ for the second.

AUAAAAGCGCCAGAACUACAGAAAUGUAGUUGACGAGGAGGAGGAUUAUCGUAUUUUCGGAGGAUGCCUCCAAA [U45A A52U C61A] and AUAAAAGCGCCAGAACUACAGAAAUGUAGUUGACGAGGCGGAGGUUUAUAGACUUUUCGGCGGAUUCCUCCAAA [A39C C50A A53C G66U] cannot be ordered by “self-cleavage kobs at 10000 uM GlcN6P” value: under 1e-05 s⁻¹ for the first, under 1e-05 s⁻¹ for the second.

First: AUAAUAGCGCCAGAACUACAGAAAUGUAGUUGCCGAGGAGGAGGUUUAUCGAAUUUUCGGCGGAUGCCUCCAAA [A5U A33C]
Second: AUAAAAGCGCCUGAACUACAGAAAUGUACUUGUCGAGGAGGAGGUUUAUCGAAUUUUCGGCGGAUGCCUCCAAA [A12U G29C A33U]
The “self-cleavage kobs at 10000 uM GlcN6P” value of the first is 6.5-fold higher: 0.000263 ± 6.3e-05 s⁻¹ for the first, 4.02e-05 ± 1.2e-05 s⁻¹ for the second.

Compared with AUAAAAACGCCAGAAUUACAGAAAUGUAGUUGACGAGGAGGAGGUUUAUCGAAUUUUCGGCGGAUGCCUCCAAA [G7A C16U], AUAAAAGCGCCAGAACUACAGAAAUGUACUUGACGAGGAGGAGGUGUAUCGAAUUUUCGGCGGAUGUCUCCAAA [G29C U46G C67U] is 5.4-fold higher in “self-cleavage kobs at 10000 uM GlcN6P” value: 2.32e-05 ± 1.2e-05 s⁻¹ for the first, 0.000125 ± 3.3e-05 s⁻¹ for the second.

Compared with AUAAAAGCGCCAGAACUACAGAAAUGUAGUUGACGAGGAGGAGGUUUAUUGAAUCUUCGGCGGAUGCCUCCAAA [C50U U55C], AUAAAAGCGCCAGAAAUACAGAAAUGUAGUCGACGAGGAGGAGGUUUAUCGAAUAUUCGGCGGAUGCCUCCAAA [C16A U31C U55A] is 4.3-fold higher in “self-cleavage kobs at 10000 uM GlcN6P” value: 4.47e-05 ± 1.1e-05 s⁻¹ for the first, 0.000194 ± 3.1e-05 s⁻¹ for the second.

AUAAAAGCGCAAGACCUACAGAAAUGUAGUUGACGAGGAGGAGGUUUAUCGAAGUUUCGGCGGAUGCCUCCAAA [C11A A15C U54G] was tested, and the “self-cleavage kobs at 10000 uM GlcN6P” value was 5.7e-05 ± 1.8e-05 s⁻¹.
